Target: human ER membrane protein complex (EMC) with EMC2-3xFlag and EMC5-Twin-Strep (human (endogenous in Expi293F) | human) (UniProt Q8N766)
Assay: cryo-EM structure; VDAC1-bound class of the purified human EMC sample in digitonin (complex co-purified from cells), single-particle cryo-EM, 3.32 Å

UniProt Q8N766, sequence (Q8N766 whole entry, looked up, one chain of several): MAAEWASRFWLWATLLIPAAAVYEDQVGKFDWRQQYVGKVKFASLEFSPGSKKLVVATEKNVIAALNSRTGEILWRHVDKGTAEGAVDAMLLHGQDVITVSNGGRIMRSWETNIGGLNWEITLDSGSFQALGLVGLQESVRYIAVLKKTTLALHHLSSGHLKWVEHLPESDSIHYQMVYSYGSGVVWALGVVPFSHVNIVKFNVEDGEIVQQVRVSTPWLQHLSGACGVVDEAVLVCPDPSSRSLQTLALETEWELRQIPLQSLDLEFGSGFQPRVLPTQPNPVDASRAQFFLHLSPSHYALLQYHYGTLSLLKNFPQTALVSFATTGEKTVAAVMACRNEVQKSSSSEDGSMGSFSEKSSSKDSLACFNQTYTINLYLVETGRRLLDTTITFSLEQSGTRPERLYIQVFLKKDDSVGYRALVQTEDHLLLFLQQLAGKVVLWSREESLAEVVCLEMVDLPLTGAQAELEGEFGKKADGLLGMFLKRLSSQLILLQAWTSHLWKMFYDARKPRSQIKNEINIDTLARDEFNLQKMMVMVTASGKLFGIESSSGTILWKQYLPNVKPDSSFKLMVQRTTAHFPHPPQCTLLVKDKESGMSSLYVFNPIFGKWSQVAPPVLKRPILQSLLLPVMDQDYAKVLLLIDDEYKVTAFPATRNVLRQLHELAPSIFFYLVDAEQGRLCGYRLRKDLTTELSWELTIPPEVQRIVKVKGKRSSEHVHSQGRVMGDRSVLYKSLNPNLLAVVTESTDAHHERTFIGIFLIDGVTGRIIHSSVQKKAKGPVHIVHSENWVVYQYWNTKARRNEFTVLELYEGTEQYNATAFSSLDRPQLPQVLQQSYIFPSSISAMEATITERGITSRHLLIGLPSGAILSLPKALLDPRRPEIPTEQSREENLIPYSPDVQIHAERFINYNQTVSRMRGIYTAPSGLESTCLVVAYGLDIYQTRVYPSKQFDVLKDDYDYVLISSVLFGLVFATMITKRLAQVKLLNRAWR

- stoichiometry N: 1
Substance: voltage-dependent anion channel 1 (VDAC1), endogenous (from UniProt P21796 1-283) (natural protein)

From publication PMC11006472
